Measured values as given in article PMC5394233, “Structural and functional analysis of the human POT1-TPP1 telomeric complex” (Nature Communications, 2017).

How the values were obtained:
Test in all cases: fluorescence polarization; FP: 20 mM Hepes pH 7.5, 100 mM KCl, 2 mM MgCl2, 1 mM EDTA, 2 mM DTT, 1 mg/ml BSA, 5% glycerol, 75 nM polyT50 competitor, 2.5 nM probe, room temperature 30 min
flPOT1 Q623H = biological target: T1, flPOT1 Q623H (Homo sapiens, UniProt Q9NUX5 1-634, Q623H); conditions: protein: recombinant; tags: N-terminal His6-pMocr, TEV-cleaved; label: 5' 6-FAM; single strand
T1 sequence: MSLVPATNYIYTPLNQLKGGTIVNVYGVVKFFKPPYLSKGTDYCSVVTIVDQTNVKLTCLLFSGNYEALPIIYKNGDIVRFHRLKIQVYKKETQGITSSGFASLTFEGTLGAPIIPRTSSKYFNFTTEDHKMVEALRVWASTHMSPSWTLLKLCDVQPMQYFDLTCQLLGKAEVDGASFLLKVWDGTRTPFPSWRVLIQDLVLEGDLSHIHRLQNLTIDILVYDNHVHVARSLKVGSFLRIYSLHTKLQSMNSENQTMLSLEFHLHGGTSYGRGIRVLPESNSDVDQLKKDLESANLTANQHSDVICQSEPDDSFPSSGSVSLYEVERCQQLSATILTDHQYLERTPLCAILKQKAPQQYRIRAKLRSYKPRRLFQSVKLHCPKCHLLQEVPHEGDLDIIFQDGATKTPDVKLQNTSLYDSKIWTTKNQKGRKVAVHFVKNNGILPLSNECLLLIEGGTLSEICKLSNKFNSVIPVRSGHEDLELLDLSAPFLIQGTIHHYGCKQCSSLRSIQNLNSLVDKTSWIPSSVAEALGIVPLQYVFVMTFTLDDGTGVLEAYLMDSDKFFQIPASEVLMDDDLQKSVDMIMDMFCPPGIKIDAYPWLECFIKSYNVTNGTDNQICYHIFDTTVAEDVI

flPOT1 P446Q;TPP1(87) = flPOT1 P446Q;TPP1(87) (Homo sapiens;Homo sapiens, UniProt Q9NUX5;Q96AP0 1-634;1-458, P446Q|); conditions: protein: recombinant;recombinant, tags: N-terminal His6-pMocr, TEV-cleaved;N-terminal His6-MBP, copies: 1;1, label: 5' 6-FAM, single strand
flPOT1 WT = biological target: T2, flPOT1 WT (Homo sapiens, UniProt Q9NUX5 1-634); conditions: protein: recombinant; tags: N-terminal His6-pMocr, TEV-cleaved; label: 5' 6-FAM; single strand
T2 sequence: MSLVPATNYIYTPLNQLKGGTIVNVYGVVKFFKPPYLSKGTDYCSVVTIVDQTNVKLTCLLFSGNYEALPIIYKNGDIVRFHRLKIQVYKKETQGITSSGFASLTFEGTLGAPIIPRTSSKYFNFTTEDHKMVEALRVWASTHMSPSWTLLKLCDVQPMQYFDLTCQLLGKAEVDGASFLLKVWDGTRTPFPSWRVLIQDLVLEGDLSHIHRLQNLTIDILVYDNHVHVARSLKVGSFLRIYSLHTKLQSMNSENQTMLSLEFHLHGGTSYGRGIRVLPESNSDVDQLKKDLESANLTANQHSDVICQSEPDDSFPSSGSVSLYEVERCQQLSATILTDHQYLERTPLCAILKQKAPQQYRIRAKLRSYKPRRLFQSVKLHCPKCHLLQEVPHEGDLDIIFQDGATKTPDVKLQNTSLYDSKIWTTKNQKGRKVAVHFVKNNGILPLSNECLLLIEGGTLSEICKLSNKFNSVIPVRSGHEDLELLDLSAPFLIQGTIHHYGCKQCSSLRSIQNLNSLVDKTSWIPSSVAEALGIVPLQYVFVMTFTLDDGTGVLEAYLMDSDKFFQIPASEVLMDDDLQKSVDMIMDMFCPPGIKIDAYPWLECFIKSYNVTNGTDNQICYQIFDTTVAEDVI

flPOT1 C591W;TPP1(87) = flPOT1 C591W;TPP1(87) (Homo sapiens;Homo sapiens, UniProt Q9NUX5;Q96AP0 1-634;1-458, C591W|); conditions: protein: recombinant;recombinant, tags: N-terminal His6-pMocr, TEV-cleaved;N-terminal His6-MBP, copies: 1;1, label: 5' 6-FAM, single strand
flPOT1 C591W = biological target: T3, flPOT1 C591W (Homo sapiens, UniProt Q9NUX5 1-634, C591W); conditions: protein: recombinant; tags: N-terminal His6-pMocr, TEV-cleaved; label: 5' 6-FAM; single strand
T3 sequence: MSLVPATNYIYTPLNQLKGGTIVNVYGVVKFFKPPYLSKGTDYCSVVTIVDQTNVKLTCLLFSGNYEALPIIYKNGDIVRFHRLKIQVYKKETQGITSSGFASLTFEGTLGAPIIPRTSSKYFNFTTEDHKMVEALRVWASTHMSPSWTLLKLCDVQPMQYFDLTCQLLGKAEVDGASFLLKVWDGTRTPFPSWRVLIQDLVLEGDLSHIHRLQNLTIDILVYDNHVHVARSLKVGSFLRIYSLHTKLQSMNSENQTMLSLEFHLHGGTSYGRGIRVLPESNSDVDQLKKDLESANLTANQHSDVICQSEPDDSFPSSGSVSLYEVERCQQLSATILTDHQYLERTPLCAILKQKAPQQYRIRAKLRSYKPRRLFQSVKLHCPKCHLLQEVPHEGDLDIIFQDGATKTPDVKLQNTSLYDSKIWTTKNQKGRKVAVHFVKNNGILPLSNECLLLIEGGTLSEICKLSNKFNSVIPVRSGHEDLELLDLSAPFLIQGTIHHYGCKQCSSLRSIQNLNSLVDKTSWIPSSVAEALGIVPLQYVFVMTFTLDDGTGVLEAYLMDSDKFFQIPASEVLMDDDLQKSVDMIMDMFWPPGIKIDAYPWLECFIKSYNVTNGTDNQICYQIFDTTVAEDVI

Chain of flPOT1 C591W;TPP1(87) (Q96AP0 whole entry, chain 2 of 2, one chain of several): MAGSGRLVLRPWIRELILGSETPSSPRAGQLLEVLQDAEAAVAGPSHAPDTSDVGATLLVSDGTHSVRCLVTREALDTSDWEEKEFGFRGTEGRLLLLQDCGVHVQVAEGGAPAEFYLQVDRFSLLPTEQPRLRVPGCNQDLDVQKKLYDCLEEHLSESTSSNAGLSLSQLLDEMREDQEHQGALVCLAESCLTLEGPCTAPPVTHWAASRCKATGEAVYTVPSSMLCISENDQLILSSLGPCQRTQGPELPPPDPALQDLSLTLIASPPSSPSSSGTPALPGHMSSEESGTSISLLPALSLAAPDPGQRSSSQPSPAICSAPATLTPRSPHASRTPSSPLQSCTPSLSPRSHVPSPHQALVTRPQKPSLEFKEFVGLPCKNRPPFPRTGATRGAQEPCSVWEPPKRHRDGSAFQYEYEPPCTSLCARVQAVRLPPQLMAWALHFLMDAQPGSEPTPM
Chain of flPOT1 P446Q;TPP1(87) (Q9NUX5 whole entry P446Q, chain 1 of 2): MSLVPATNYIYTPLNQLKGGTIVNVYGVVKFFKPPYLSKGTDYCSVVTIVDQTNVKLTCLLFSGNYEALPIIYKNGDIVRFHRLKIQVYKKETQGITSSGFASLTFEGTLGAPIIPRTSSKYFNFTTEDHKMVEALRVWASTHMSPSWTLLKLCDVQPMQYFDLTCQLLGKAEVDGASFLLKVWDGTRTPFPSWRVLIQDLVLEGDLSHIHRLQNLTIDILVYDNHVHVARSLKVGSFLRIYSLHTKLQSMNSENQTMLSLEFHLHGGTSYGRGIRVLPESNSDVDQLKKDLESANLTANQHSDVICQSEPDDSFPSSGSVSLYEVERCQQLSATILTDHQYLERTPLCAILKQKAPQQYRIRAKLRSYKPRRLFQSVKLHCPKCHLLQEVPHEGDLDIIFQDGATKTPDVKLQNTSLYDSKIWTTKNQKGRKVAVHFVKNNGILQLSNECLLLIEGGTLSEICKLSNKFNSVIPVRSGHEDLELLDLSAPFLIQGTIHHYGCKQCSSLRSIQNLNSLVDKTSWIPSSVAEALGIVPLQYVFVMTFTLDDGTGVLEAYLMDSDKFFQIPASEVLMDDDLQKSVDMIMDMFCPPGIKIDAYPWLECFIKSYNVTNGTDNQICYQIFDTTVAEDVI
Chain of flPOT1 P446Q;TPP1(87) (Q96AP0 whole entry, chain 2 of 2): as the sequence (Q96AP0 whole entry, chain 2 of 2, one chain of several) above

Q: What does the source list for TTAGGGTTAGGGTTAGGG (ssDNA) [telomeric 18mer (TTAGGG)3]?
A: Kd (flPOT1 Q623H): ~20 nM; Kd (flPOT1 P446Q;TPP1(87)): 10.3 ± 1 nM; Kd (flPOT1 WT): ~20 nM; Kd (flPOT1 C591W;TPP1(87)): 15.6 ± 2.5 nM; Kd (flPOT1 C591W): ~20 nM
